In article PMC5464891, “Utilizing combinatorial engineering to develop Tie2 targeting antagonistic angiopoetin-2 ligands as candidates for anti-angiogenesis therapy” (Oncotarget, 2017):

Experiments:
[1] = biological target: Ang2-BD_(C1.70), yeast-displayed (human) (UniProt O15123); experiment: flow cytometry on cells; Ang2-BD displayed on yeast, soluble Tie2-Fc in 20 mM Hepes pH 7.0, 150 mM NaCl, 1% BSA, 1 h at room temperature; detected with anti-human Fc FITC; binding MFI divided by expression MFI (c-Myc) and normalized to Ang2-BDWT
[2] = biological target: Ang2-BD_(C2.36), yeast-displayed (human) (UniProt O15123); experiment: as above
[3] = biological target: T1, rhTie2 extracellular domain (human, UniProt Q02763 23-748); experiment: SPR; ProteOn XPR36, rhTie2 extracellular domain amine-coupled to a GLC chip (2100 RU), Ang2-BD variants as analytes, 25°C, 20 mM Hepes pH 7.0, 150 mM NaCl, 1 mM CaCl2; steady state for Ang2-BDWT, two-state model for the variants; conditions: both partners purified
T1 construct: receptor tyrosine kinase Tie2, recombinant human, extracellular domain; also called immobilized Tie2; recombinant soluble Tie2; source: bought: Sino Biological Inc
T1 sequence (Q02763 23-748): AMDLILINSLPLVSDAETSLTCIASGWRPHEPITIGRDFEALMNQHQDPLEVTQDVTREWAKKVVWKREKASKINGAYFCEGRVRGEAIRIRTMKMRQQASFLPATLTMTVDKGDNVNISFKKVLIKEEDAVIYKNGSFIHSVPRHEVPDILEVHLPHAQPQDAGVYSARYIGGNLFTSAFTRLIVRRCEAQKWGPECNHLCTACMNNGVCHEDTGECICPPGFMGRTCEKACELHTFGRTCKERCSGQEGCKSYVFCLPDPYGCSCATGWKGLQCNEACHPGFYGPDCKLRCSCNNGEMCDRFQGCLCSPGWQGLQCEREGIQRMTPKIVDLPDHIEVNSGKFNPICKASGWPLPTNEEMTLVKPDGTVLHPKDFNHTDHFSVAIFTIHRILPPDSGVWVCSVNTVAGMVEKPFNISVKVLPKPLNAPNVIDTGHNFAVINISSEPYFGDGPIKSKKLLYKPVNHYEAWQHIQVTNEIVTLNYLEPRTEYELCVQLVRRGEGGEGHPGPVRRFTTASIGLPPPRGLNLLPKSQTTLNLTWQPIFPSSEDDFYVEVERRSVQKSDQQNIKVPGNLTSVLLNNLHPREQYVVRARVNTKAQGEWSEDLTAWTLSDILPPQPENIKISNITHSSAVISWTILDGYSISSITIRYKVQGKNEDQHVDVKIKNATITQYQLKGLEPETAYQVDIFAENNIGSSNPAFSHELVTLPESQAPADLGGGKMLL

Sequence of Recombinant human Tie2 (Ala23-Lys745) Fc fusion, soluble Tie2-Fc (Q02763 23-745): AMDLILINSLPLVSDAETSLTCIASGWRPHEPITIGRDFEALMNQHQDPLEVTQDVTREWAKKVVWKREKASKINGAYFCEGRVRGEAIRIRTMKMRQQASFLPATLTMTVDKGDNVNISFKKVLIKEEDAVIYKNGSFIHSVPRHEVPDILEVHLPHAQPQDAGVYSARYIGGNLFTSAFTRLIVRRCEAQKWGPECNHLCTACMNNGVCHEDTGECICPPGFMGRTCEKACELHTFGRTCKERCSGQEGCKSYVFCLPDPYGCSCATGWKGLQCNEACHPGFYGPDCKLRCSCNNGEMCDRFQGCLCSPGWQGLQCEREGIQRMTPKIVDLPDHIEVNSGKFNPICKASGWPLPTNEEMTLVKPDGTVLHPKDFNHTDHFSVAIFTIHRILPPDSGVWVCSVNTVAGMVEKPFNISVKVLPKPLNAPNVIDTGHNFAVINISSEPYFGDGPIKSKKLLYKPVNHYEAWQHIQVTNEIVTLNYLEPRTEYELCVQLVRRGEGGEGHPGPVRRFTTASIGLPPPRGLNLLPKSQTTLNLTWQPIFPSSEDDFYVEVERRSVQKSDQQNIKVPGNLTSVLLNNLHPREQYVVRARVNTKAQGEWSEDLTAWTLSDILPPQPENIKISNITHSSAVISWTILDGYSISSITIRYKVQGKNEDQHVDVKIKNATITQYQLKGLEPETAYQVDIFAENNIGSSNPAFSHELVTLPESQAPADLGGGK

fold increase in affinity relative to Ang2-BDWT [1] [fold]	fold increase in binding affinity as compared to Ang2-BDWT [2] [fold]	Kd [3] [nM]	Molecule
2.5	17		Recombinant human Tie2 (Ala23-Lys745) Fc fusion, soluble Tie2-Fc (from UniProt Q02763 23-745)
		434	Ang2-BDWT, soluble (domain or fragment, human, UniProt O15123 281-496, looked up, N-linked carbohydrates removed with Endo Hf; also called wild-type Ang2-BD; parental Ang2-BD; source: Pichia pastoris GS115, purified from culture supernatant (HisTrap, Endo Hf treatment, Superdex 75); not shown: FLAG, N-terminal, kept) FRDCAEVFKSGHTTNGIYTLTFPNSTEEIKAYCDMEAGGGGWTIIQRREDGSVDFQRTWKEYKVGFGNPSGEYWLGNEFVSQLTNQQRYVLKIHLKDWEGNEAYSLYEHFYLSSEELNYRIHLKGLTGTAGKISSISQPGNDFSTKDGDNDKCICKCSQMLTGGWWFDACGPSNLNGMYYPQRQNTNKFNGIKWYYWKGSGYSLKATTMMIRPADF
